According to patent US20150111836A1, “CELLULAR APOBEC3 PROTEINS AND MODULATORS THEREOF FOR REGULATING DNA REPAIR PROCESSES AND TREATING PROLIFERATIVE DISEASES” (priority 2012, published 2015):

Key:
[1] = biological target: purified recombinant A3G-His6 (human APOBEC3G with C-terminal Myc-His6 tag, expressed in 293T cells) (human) (UniProt Q9HC16); experiment: cell-based or functional assay
[2] = biological target: virion-associated A3G (endogenous A3G of H9 cells packaged in HIV-1 particles) (human) (UniProt Q9HC16); experiment: cell-based or functional assay

Sequence of purified recombinant A3G-His6 (human APOBEC3G with C-terminal Myc-His6 tag, expressed in 293T cells) (human) (Q9HC16 whole entry): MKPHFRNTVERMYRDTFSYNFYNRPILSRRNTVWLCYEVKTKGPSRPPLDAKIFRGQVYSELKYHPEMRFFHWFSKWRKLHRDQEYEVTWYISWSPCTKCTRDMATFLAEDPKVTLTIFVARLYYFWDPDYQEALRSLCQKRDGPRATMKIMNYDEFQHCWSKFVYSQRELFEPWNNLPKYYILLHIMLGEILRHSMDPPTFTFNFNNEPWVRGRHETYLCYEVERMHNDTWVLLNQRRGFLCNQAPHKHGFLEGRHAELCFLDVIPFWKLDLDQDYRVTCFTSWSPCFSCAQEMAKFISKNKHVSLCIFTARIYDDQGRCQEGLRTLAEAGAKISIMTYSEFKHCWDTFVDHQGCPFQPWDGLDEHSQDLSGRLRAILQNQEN

Row | Substance | inhibition of A3G deaminase activity [1] [µM] | further results
1 | Vif9-23 peptide | 1 | 
2 | Vif113-127 peptide | 1 | 
3 | Vif101-115 peptide | 1 | 
4 | Vif molecules associated with HIV-1 particles (wt HIV-1 HXB2 virions) (from UniProt P05900 1-192) |  | specific activity of virion-associated A3G deaminase (wt vs Δvif particles, normalized to A3G protein content) [2]: 36.5%
5 | BSA (from UniProt P02769 25-607) |  | A3G deaminase activity [1]: 10 µM
6 | Vif37-51 peptide | 1 | 
